Experimental data published in the supplement of paper PMC11811203.

B1: THAP1; numbered along this chain (parent)
chain: MVQSCSAYGCKNRYDKDKPVSFHKFPLTRPSLCKEWEAAVRRKNFKPTKYSSICSEHFTPDCFKRECNNKLLKENAVPTIFLCTEPHDKKEDLLEPQEQLPPPPLPPPVSQVDAAIGLLMPPLQTPVNLSVFCDHNYTVEDTMHQRKRIHQLEQQVEKLRKKLKTAQQRCRRQERQLEKLKEVVHFQKEKDDVSERGYVILPNDYFEIVEVPA

Variants of: B1
Assay: THAP1 transcriptional activity (GFP+/GFP- enrichment relative to wild-type constructs) (ratio to WT); higher = more THAP1 activity (PSMB5 reporter activation)
Conditions: with PSMB5 promoter-GFP reporter
In short: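 In duplicate, a lentivirus-delivered library with every residue from 2–213 of human THAP1 changed to all 20 amino acids was introduced at MOI ~0.3 into THAP1-knockout HEK-293T cells carrying endogenous PSMB5 tagged by mClover3 knock-in. Five days on, BFP+ cells were binned as GFP-dim or GFP-bright, and Illumina sequencing of genomic DNA amplicons counted each variant. Activity is the bright/dim read fold change, averaged over replicates and scaled to the mean of wild-type synonymous constructs.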

THAP1 transcriptional activity: each site, then its substitutions
T142: D 0.738 | E 1.23 | A 0.581 | S 0.66 | V 0.403 | G 0.864 | R 0.576 | Y 0.248 | F 0.386 | Q 0.756 | C 0.803 | W 0.266 | H 0.658 | N 0.392 | K 0.964 | I 0.34 | M 0.188 | P 0.997 | L 0.587
D141: L 0.286 | I 0.309 | A 0.37 | N 0.776 | E 1.51 | C 0.355 | T 0.642 | W 0.255 | S 0.634 | M 0.395 | Q 0.581 | H 0.514 | R 0.588 | K 0.927 | Y 0.644 | V 0.352 | F 0.552 | P 0.986 | G 0.809
Q154: I 0.779 | E 0.776 | R 0.653 | L 0.867 | V 0.661 | S 1.24 | D 0.962 | G 0.732 | M 1.17 | W 0.539 | A 1.06
Q145: I 0.448 | E 0.577 | G 0.569 | K 0.783 | N 0.719 | S 0.592 | A 1.08 | M 0.767 | C 0.357 | R 0.646 | V 0.59 | D 0.415 | L 0.544 | F 0.716 | P 0.652 | Y 0.618 | W 0.755 | T 1.05 | H 0.747
I149: C 0.454 | K 0.403 | Q 0.327 | Y 0.445 | W 0.164 | D 0.218 | G 0.197 | R 0.245 | N 0.465 | E 0.225 | F 0.539 | H 0.248
Q151: M 0.894 | N 0.636 | V 0.675 | L 0.804 | C 0.782 | I 0.817 | E 0.7 | P 0.303 | G 0.864 | S 0.793 | T 0.796 | A 0.791 | R 1.12
L152: I 0.29 | K 0.189 | H 0.215 | A 0.28 | D 0.195 | R 0.306 | C 0.209 | N 0.287 | F 0.236 | W 0.246 | V 0.213 | E 0.227 | P 0.177 | G 0.249 | S 0.211 | M 0.249 | Q 0.191
H150: L 0.769 | R 1.19 | I 0.713 | N 0.896 | G 0.721 | V 1.1 | P 0.317 | W 0.976 | Y 0.767 | E 0.884 | M 1.09 | C 0.635 | Q 1.21 | D 0.609 | A 1
L159: H 0.228 | C 0.151 | W 0.164 | G 0.147 | P 0.158 | R 0.193 | N 0.294 | D 0.213 | Y 0.707 | A 0.245 | T 0.209 | V 0.327 | F 0.337 | Q 0.261 | M 0.541 | E 0.147
V156: A 0.555 | E 0.213 | L 0.731 | R 0.349 | M 0.475 | S 0.331 | Q 0.225 | I 0.548 | C 0.708 | H 0.201 | P 0.0732 | Y 0.362 | G 0.25 | W 0.284 | D 0.153 | K 0.343 | T 0.468
R148: D 0.202 | V 0.412 | N 0.303 | P 0.18 | T 0.312 | A 0.487 | G 0.324 | M 0.261 | K 1.02 | Q 0.425 | C 0.26 | E 0.167 | W 0.179 | L 0.312 | F 0.196
Q155: K 0.749 | W 0.376 | M 0.674 | P 0.175 | D 0.521 | R 0.65 | V 0.773 | S 0.563 | C 0.531 | H 0.765 | I 0.473 | N 0.447 | Y 0.71 | T 0.609
K158: V 0.617 | F 0.365 | Y 0.666 | N 0.391 | P 0.175 | L 0.386 | M 0.607 | R 0.941 | G 0.542 | E 0.562 | I 0.55 | W 0.457 | H 0.822 | D 0.831 | Q 0.708
R146: M 0.595 | D 0.548 | Q 0.849 | I 0.358 | A 0.79 | S 1 | F 0.489 | N 0.584 | P 0.535 | Y 0.539 | W 0.39
E157: I 1.2 | P 0.228 | L 0.434 | A 1.14 | Y 0.488 | D 0.766 | Q 0.766 | G 0.865 | C 0.685 | M 1.03 | R 0.765 | S 1.39 | N 0.914 | W 0.741 | V 0.835
M143: G 1.05 | E 0.983 | R 0.991 | V 1.09 | D 1.76 | K 0.848 | S 0.971 | W 0.719 | C 1.09 | Y 0.547 | T 1.19 | N 0.961 | I 0.679 | Q 0.669 | A 0.634 | H 0.575 | L 0.725 | P 1.2 | F 0.339
R160: M 0.278 | D 0.216 | A 0.391 | F 0.252 | P 0.171 | I 0.228 | G 0.224 | C 0.269 | K 0.689 | H 0.433 | L 0.205
V139: M 1.22 | L 1.18 | P 0.163 | Y 0.59 | Q 0.576 | T 0.34 | S 0.407 | K 1.41 | R 0.938 | W 0.454
H144: G 1.11 | R 0.709 | S 0.747 | E 0.421 | Q 0.814 | P 0.334 | N 0.686 | A 1.5 | K 0.954 | M 0.509 | Y 0.802 | F 0.637 | W 0.56 | T 0.4 | C 0.498 | D 0.747 | V 0.388
K147: S 0.621 | I 0.346 | T 0.664 | A 0.537 | R 0.9 | H 0.438 | F 0.361 | M 0.271 | V 0.383 | D 0.605 | N 0.976 | W 0.458 | E 0.626 | P 0.502 | Y 0.522 | G 0.51 | L 0.458
E153: T 0.774 | V 0.395 | G 0.412 | M 0.461 | I 0.393 | N 0.512 | S 0.631 | K 0.513 | C 0.315 | R 0.491 | Q 0.585 | W 0.268 | Y 0.404
E140: I 1.08 | T 1.57 | A 1.46 | N 1.33 | L 1.81 | G 2.94 | W 1.1 | D 0.727 | K 4.18 | M 1.04 | F 1.16 | H 0.784 | R 1.3 | P 3.02 | S 1.48 | C 0.908 | V 1.01 | Y 1.16 | Q 1.61
